Reference: US7063946B2, “Methods, reagents, kits and apparatus for protein function analysis” (Meso Scale Technologies, LLC., priority 2001, dated 2006)
Blank lines part the entries; values can stand above or below the molecule they belong to.

Key:
pEY = test: In vitro kinase library screen: activity towards pEY; type: biochemical; conditions: 5 ul of expressed protein
Procedure: Proteins were produced in an in vitro transcription and translation reaction. […] The unbound components of the reaction containing endogenous kinases were removed by three washes with TT-buffer (25 mM Tris-HCl buffer pH 7.4 and 0.004% Triton), two five minutes washings with high-salt wash buffer (25 mM Tris-HCl buffer pH 7.4, 0.004% Triton, 1M NaCl and 5 mM DTT) and 3 more washes with TT-buffer. To these immobilized and purified proteins a tyrosine kinase substrate, 5 nM pEY (poly Glu-Tyr, Sigma, MO), was added in a 50 μl reaction solution containing 5 mM MgCl2, 5 mM MnCl2, 100 μM ATP, 25 mM Tris-HCl buffer pH 7.4, 0.05 mM Na3VO4, 0.004% TritonX-100, 2 mM DTT and EDTA-free protease inhibitor (Roche Molecular Biochemicals). This mixture was incubated with shaking at room temperature overnight to allow phosphorylation of the pEY substrate by the immobilized kinases. Following this incubation, 45 μl of this mixture was transferred to a streptavidin or avidin-coated NPT IPR plate coated with biotinylated anti-phosphotyrosine antibody (PY20, Zymed labs, CA) followed by incubation for 30 minutes at room temperature to allow the binding of the phosphorylated pEY substrate to the PY20 coated NPT plate. Following this binding step, 50 ng Sulfo-TAG labeled anti-phosphotyrosine in buffer containing 25 mM Tris-HCl buffer pH 7.4, 5 mM MgCl2, 0.05 mM Na3VO4, 0.004% TritonX-100, 2 mM DTT and 0.05% IgG was added followed by incubation at room temperature for 30 mm. The unbound reagents were removed by one time washing with water, and the TAG label was detected in presence of 150 μl IPR assay buffer (0.4 mM Gly-Gly buffer, pH 7.8, 1 mM EDTA, 0.1 M TPA). The ECL signals were measured using an imaging plate reader.
(§1) Proteins were produced in an in vitro transcription and translation reaction as described in the Materials and Methods. […] The reaction was stopped by mixing with BB2 buffer. Biotinylated proteins from 50 μl of the mixture (representing 0.5 μl to 5 μl of TnT reaction) were immobilized onto streptavidin or avidin coated NPT-IPR plates by shaking at room temperature for 45 min. The activity of the immobilized protein towards pEY or autophosphorylation was further assayed by the methods described in examples 7 and 8.

[1] = test system: autophosphorylation (phosphotyrosine); test: In vitro kinase library screen: autophosphorylation; type: biochemical
Procedure: Proteins were produced from DNA plasmids of Mock Luciferase, Promega, tyrosine kinase clone Spleen Tyrosine kinase (SYK, IMAGE ID# 3870426) and Eph receptor-A7 (EphA7, IMAGE ID# 3991628) (Incyte Genomics, CA) and immobilized on streptavidin or avidin coated NPT-IPR plates as described in the Example 7. To promote autophosphorylation in these immobilized and purified proteins, Mn++ ions were added in a 50 μl reaction containing 5 mM MgCl2, 5 mM MnCl2, 100 μM ATP, 25 mM Tris-HCl buffer pH 7.4, 0.05 mM Na3VO4, 0.004% TritonX-100, 2 mM DTT and EDTA-free protease inhibitor (Roche Molecular Biochemicals). This mixture was incubated with shaking at room temperature overnight to allow autophosphorylation. Following this incubation, wells were washed 2 times with TT-buffer and 2 times with water. Following this step, 50 ng Sulfo-TAG labeled anti-phosphotyrosine in buffer containing 25 mM Tris-HCl buffer pH 7.4, 5 mM MgCl2, 0.05 mM Na3VO4, 0.004% TritonX-100, 2 mM DTT and 0.05% IgG in a final volume of 50 μl was added followed by incubation at room temperature for 45 min. The unbound reagents were removed by one time washing with water, and the TAG label was detected in presence of 150 μl IPR assay buffer (0.4 mM Gly—Gly buffer, pH 7.8, 1 mM EDTA, 0.1 M TPA). The ECL signals were measured using an imaging plate reader.
as §1

[2] = test system: pooled phosphopeptide:BSA conjugates (Pools A-D); test: Coded multiplex phosphopeptide binding assay with pooled peptide:BSA conjugates on 4 spots
Excerpt: To prepare the Multi-Spot IPR plates, in this example we made use of pools of the peptide:BSA conjugates to coat each of 4 spots per well in a 96 well plate. To achieve this we made the following pools; • Pool A; EGFR-pTyr1148, IkBa-24ppC, Myc-p58Tp62S. • Pool B; EGFR-pTyr992, EGFR-pTyr1148, Smad3C. • Pool C; EGFR-pTyr1068, IkBa-24ppC, Smad3C. • Pool D; EGFR-pTyr992, EGFR-pTyr1068, Myc-p58Tp62S.
This combination of the various peptides results in any single peptide being present in two pools. Each of these four pools is then spotted on to a unique spot in a 4 spot array. In this way any single binding protein with specificity for only one of the peptides would bind to two spots; the identity of the two spots would allow the identification of the peptide involved in the binding reaction.
Typically approximately 120 fmole of peptide:BSA conjugate in 0.25 μl was deposited on each spot of a 4-spot multi-array IPR plates using a BioDot Dispenser (Bio-Dot Inc., vIrvine Calif.). At this stage, the plates were dried then used or stored under desiccated condition. A few hours prior to usage, the plates were rehydrated and blocked with 3% BSA, in PBS.
To test the system the following EST clones IMAGE # 3491843, 4237375, 4398016, 4419252, 3872466, 3907115 were obtained. These clones express the following genes βTRCP1, βTRCP2, Grb2, PLCγ, CBP and Shc1, respectively. […] These DNAs were used to produce proteins as described in the Materials and Methods. Proteins were transferred to a well of the 4 spot peptide-coated and BSA blocked ECL plates. The binding assay (using Sulfo-TAG labeled streptavidin as a detection agent) was carried our according to the procedures described in Example 11.

HTS signal (pEY): 184,534
ECL signal [1]: 301,418
B1: 3978518: IMAGE clone protein: Hck, hemopoietic cell kinase (protein, UniProt P08103 2-524, looked up)
Tyrosine-protein kinase HCK: GGRSSCEDPGCPRSEGRAPRMGCVKSRFLRDGSKASKTEPSANQKGPVYVPDPTSSSKLGPNNSNSMPPGFVEGSEDTIVVALYDYEAIHREDLSFQKGDQMVVLEEAGEWWKARSLATKKEGYIPSNYVARVNSLETEEWFFKGISRKDAERHLLAPGNMLGSFMIRDSETTKGSYSLSVRDFDPQHGDTVKHYKIRTLDSGGFYISPRSTFSSLQELVLHYKKGKDGLCQKLSVPCVSPKPQKPWEKDAWEIPRESLQMEKKLGAGQFGEVWMATYNKHTKVAVKTMKPGSMSVEAFLAEANLMKSLQHDKLVKLHAVVSQEPIFIVTEFMAKGSLLDFLKSEEGSKQPLPKLIDFSAQISEGMAFIEQRNYIHRDLRAANILVSASLVCKIADFGLARIIEDNEYTAREGAKFPIKWTAPEAINFGSFTIKSDVWSFGILLMEIVTYGRIPYPGMSNPEVIRALEHGYRMPRPDNCPEELYNIMIRCWKNRPEERPTFEYIQSVLDDFYTATESQYQQQP

HTS signal (pEY): 1,174
ECL signal [1]: 10,540
B2: 3673003: IMAGE clone protein: Ephb3, Eph receptor B3 (protein, UniProt P54754 30-993, looked up)
Ephrin type-B receptor 3: LEETLMDTKWVTSELAWTSHPESGWEEVSGYDEAMNPIRTYQVCNVRESSQNNWLRTGFIWRREVQRVYVELKFTVRDCNSIPNIPGSCKETFNLFYYEADSDVASASSPFWMENPYVKVDTIAPDESFSRLDAGRVNTKVRSFGPLSKAGFYLAFQDQGACMSLISVRAFYKKCASTTAGFALFPETLTGAEPTSLVIAPGTCIANAVEVSVPLKLYCNGDGEWMVPVGACTCATGHEPAAKESQCRACPPGSYKAKQGEGPCLPCPPNSRTTSPAASICTCHNNFYRADSDSADSACTTVPSPPRGVISNVNETSLILEWSEPRDLGGRDDLLYNVICKKCRGSSGAGGPATCSRCDDNVEFVPRQLGLTERRVHISHLLAHTRYTFEVQAVNGVSGKSPLPPRYAAVNITTNQAAPSEVPTLHLHSSSGSSLTLSWAPPERPNGVILDYEMKYFEKSKGIASTVTSQKNSVQLDGLQPDARYVVQVRARTVAGYGQYSHPAEFETTSERGSGAQQLQEQLPLIVGSTVAGFVFMVVVVVIALVCLRKQRHGPDAEYTEKLQQYIAPGMKVYIDPFTYEDPNEAVREFAKEIDVSCVKIEEVIGAGEFGEVCRGRLKLPGRREVFVAIKTLKVGYTERQRRDFLSEASIMGQFDHPNIIRLEGVVTKSRPVMILTEFMENCALDSFLRLNDGQFTVIQLVGMLRGIAAGMKYLSEMNYVHRDLAARNILVNSNLVCKVSDFGLSRFLEDDPSDPTYTSSLGGKIPIRWTAPEAIAYRKFTSASDVWSYGIVMWEVMSYGERPYWDMSNQDVINAVEQDYRLPPPMDCPTALHQLMLDCWVRDRNLRPKFSQIVNTLDKLIRNAASLKVTASAPSGMSQPLLDRTVPDYTTFTTVGDWLDAIKMGRYKESFVGAGFASFDLVAQMTAEDLLRIGVTLAGHQKKILCSIQDMRLQMNQTLPVQV

Code (pattern of positive spots) [2]: A, B
Peptide determined from code [2]: EGFR-pTyr1148
ECL signal, spot A ([2]; Pool A, EGFR-pTyr1148, IkBa-24ppC, Myc-p58Tp62S): 260
ECL signal, spot B ([2]; Pool B, EGFR-pTyr992, EGFR-pTyr1148, Smad3C): 318
ECL signal, spot C ([2]; Pool C, EGFR-pTyr1068, IkBa-24ppC, Smad3C): 24
ECL signal, spot D ([2]; Pool D, EGFR-pTyr992, EGFR-pTyr1068, Myc-p58Tp62S): 26
B3: 3907115: IMAGE clone protein: Shc1 (protein)
chain: MNKLSGGGGRRTRVEGGQLGGEEWTRHGSFVNKPTRGWLHPNDKVMGPGVSYLVRYMGCVEVLQSMRALDFNTRTQVTREAISLVCEAVPGAKGATRRRKPCSRPLSSILGRSNLKFAGMPITLTVSTSSLNLMAADCKQIIANHHMQSISFASGGDPDTAEYVAYVAKDPVNQRACHILECPEGLAQDVISTIGQAFELRFKQYLRNPPKLVTPHDRMAGFDGSAWDEEEEEPPDHQYYNDFPGKEPPLGGVVDMRLREGAAPGAARPTAPNAQTPSHLGATLPVGQPVGGDPEVRKQMPPPPPCPGRELFDDPSYVNVQNLDKARQAVGGAGPPNPAINGSAPRDLFDMKPFEDALRVPPPPQSVSMAEQLRGEPWFHGKLSRREAEALLQLNGDFLVRESTTTPGQYVLTGLQSGQPKHLLLVDPEGVVRTKDHRFESVSHLISYHMDNHLPIISAGSELCLQQPVERKL

HTS signal (pEY): 47,477
ECL signal [1]: 27,372
B4: 3873932: IMAGE clone protein: MATK, megakaryocyte-associated tyrosine kinase (protein, UniProt P42679 1-507, looked up)
Megakaryocyte-associated …: MAGRGSLVSWRAFHGCDSAEELPRVSPRFLRAWHPPPVSARMPTRRWAPGTQCITKCEHTRPKPGELAFRKGDVVTILEACENKSWYRVKHHTSGQEGLLAAGALREREALSADPKLSLMPWFHGKISGQEAVQQLQPPEDGLFLVRESARHPGDYVLCVSFGRDVIHYRVLHRDGHLTIDEAVFFCNLMDMVEHYSKDKGAICTKLVRPKRKHGTKSAEEELARAGWLLNLQHLTLGAQIGEGEFGAVLQGEYLGQKVAVKNIKCDVTAQAFLDETAVMTKMQHENLVRLLGVILHQGLYIVMEHVSKGNLVNFLRTRGRALVNTAQLLQFSLHVAEGMEYLESKKLVHRDLAARNILVSEDLVAKVSDFGLAKAERKGLDSSRLPVKWTAPEALKHGKFTSKSDVWSFGVLLWEVFSYGRAPYPKMSLKEVSEAVEKGYRMEPPEGCPGPVHVLMSSCWEAEPARRPPFRKLAEKLARELRSAGAPASVSGQDADGSTSPRSQEP
